From the RNAGym collection of RNA variant scans (doi:10.1021/acssynbio.7b00057)

B1: Pistol ribozyme (parent)
chain: GGGUCGUUGUUCCAUAAUCGCGUGGAUAUGGCACGCAAGUUUCUACCGGGCACCGUAAAUGUCCGACUGGAGCCGUUCGGGCGGCUAUAAACAGACCUCAGGCCCGAAGCGUGGCGGCACCUGCCGCCGGUGGUAAAAAAGAUCGGAAGAGCACACGUCU

Variants of: B1
Test: aptazyme ON/OFF ratio, guanine; higher = stronger switching; co-transcriptional cleavage with and without guanine

Point of comparison: U7A U8G G9A U10G U11G, “aptazyme ON/OFF ratio” value 1.39. Against it:
- U7A U8G G9A U10A U11A C12G C13U — lower, 1.37
- U7A U8G G9A U10A U11A C12G C13G — lower, 1.34
- U7A U8G G9A U10A U11A C12G C13A — lower, 1.29
- U7A U8G G9A U10A U11G — higher, 1.8
- U7A U8G G9A U10A U11A — higher, 1.8
- U7A U8G G9A U10A U11C — lower, 1.03
- U7A U8G G9A U10C C12A — lower, 1.25
- U7A U8G G9A U10C C12G — lower, 1.35
- U7A U8G G9A U10C C12U — lower, 1.23
- U7A U8G G9A U10C U11C C13G — lower, 1.03
- U7A U8G G9A U10C U11C C13A — lower, 1.07
- U7A U8G G9A U10C U11C C13U — lower, 1.03
- U7A U8G G9A U10C U11C C12A C13U — lower, 1.04
- U7A U8G G9A U10C U11C C12A C13A — lower, 1.09
- U7A U8G G9A U10C U11C C12A C13G — lower, 1.22
- U7A U8G G9A U10G U11G C12A C13U — higher, 1.5
- U7A U8G G9A U10G U11G C12A C13G — lower, 1.34
- U7A U8G G9A U10G U11G C12A C13A — higher, 1.65
- U7A U8G G9A U10G C12G C13A — higher, 1.5
- U7A U8G G9A U10G C12G C13U — lower, 1.33
- U7A U8G G9A U10G C12G C13G — lower, 1.17
- U7A U8G G9A U10A C12G C13U — lower, 1.34
- U7A U8G G9A U10A C12G C13G — lower, 1.33
- U7A U8G G9A U10A C12G C13A — higher, 1.52
- U7A U8G G9A U10A U11G C12G C13A — lower, 1.38
- U7A U8G G9A U10A U11G C12G C13G — higher, 1.46
- U7A U8G G9A U10A U11G C12G C13U — higher, 1.48
- U7A U8G G9A U10G U11C C12U — lower, 1.16
- U7A U8G G9A U10G U11C C12G — lower, 1.38
- U7A U8G G9A U10G U11C C12A — higher, 1.45
- U7A U8G G9A U10G U11G C12A — higher, 1.46
- U7A U8G G9A U10G U11G C12G — lower, 1.24
- U7A U8G G9A U10G U11G C12U — lower, 1.32
- U7A U8G G9A U11G C12U C13A — lower, 1.12
- U7A U8G G9A U11G C12U C13U — higher, 1.5
- U7A U8G G9A U11G C12U C13G — higher, 1.44
- U7A U8G G9C U10A U11A C12A C13G — lower, 1.35
- U7A U8G G9C U10A U11A C12A C13A — higher, 1.5
- U7A U8G G9C U10A U11A C12A C13U — lower, 1.38
- U7A U8G G9A U10C C12U C13G — lower, 1.13
- U7A U8G G9A U10C C12U C13A — lower, 1.17
- U7A U8G G9A U10C C12U C13U — lower, 1.27
- U7A U8G G9A U10C U11C C12U C13A — lower, 1.06
- U7A U8G G9A U10C U11C C12U C13U — lower, 1.07
- U7A U8G G9A U10C U11C C12U C13G — lower, 1.08
- U7A U8G G9A U10G U11A C13A — lower, 1.11
- U7A U8G G9A U10G U11A C13G — lower, 1.16
- U7A U8G G9A U10G U11A C13U — lower, 1.03
- U7A U8G G9A C12A C13A — higher, 1.41
- U7A U8G G9A C12A C13U — lower, 1.35
- U7A U8G G9A C12A C13G — lower, 1.19
- U7A U8G G9A U10G C13U — lower, 1.31
- U7A U8G G9A U10G C13G — lower, 1.09
- U7A U8G G9A U10G C13A — lower, 1.18
- U7A U8G G9A U11C C12G C13G — higher, 1.4
- U7A U8G G9A U11C C12G C13A — lower, 1.32
- U7A U8G G9A U11C C12G C13U — lower, 1.14
- U7A U8G G9A U10A C12A C13A — lower, 1.27
- U7A U8G G9A U10A C12A C13G — lower, 1.06
- U7A U8G G9A U10A C12A C13U — lower, 1.37
- U7A U8G G9C U10A U11A C12G C13A — lower, 1.15
- U7A U8G G9C U10A U11A C12G C13G — lower, 1.36
- U7A U8G G9C U10A U11A C12G C13U — lower, 1.38
- U7A U8G G9A C12U C13U — lower, 1.04
- U7A U8G G9A C12U C13G — lower, 1.23
- U7A U8G G9A C12U C13A — lower, 1.28
- U7A U8G G9A U10C U11G C12G C13U — lower, 1.1
- U7A U8G G9A U10C U11G C12G C13A — lower, 1.22
- U7A U8G G9A U10C U11G C12G C13G — lower, 1.16
- U7A U8G G9A U10C U11G C13G — lower, 1.3
- U7A U8G G9A U10C U11G C13U — lower, 1.25
- U7A U8G G9A U10C U11G C13A — lower, 1.19
- U7A U8G G9A U10C U11G C12A — lower, 1.12
- U7A U8G G9A U10C U11G C12G — lower, 1.33
- U7A U8G G9A U10C U11G C12U — lower, 1.26
- U7A U8G G9C U10A U11A C13A — lower, 1.15
- U7A U8G G9C U10A U11A C13G — lower, 1.15
- U7A U8G G9C U10A U11A C13U — lower, 1.26
- U7A U8G C13U — lower, 1.2
- U7A U8G G9A U10C U11A C12U — lower, 1.2
- U7A U8G G9A U10C U11A C12A — lower, 1.24
- U7A U8G G9A U10C U11A C12G — lower, 1.13
- U7A U8G G9A U10G C12U — lower, 1.21
- U7A U8G G9A U10G C12A — lower, 1.24
- U7A U8G G9A U10G C12G — lower, 1.36
- U7A U8G G9A U11G C12U — lower, 1.36
- U7A U8G G9A U11G C12A — lower, 1.14
- U7A U8G G9A U11G C12G — lower, 1.32
- U7A U8G G9C U10A U11G C12A C13U — lower, 1.16
- U7A U8G G9C U10A U11G C12A C13G — lower, 1.18
- U7A U8G G9C U10A U11G C12A C13A — lower, 1.2
- U7A U8G G9C U10A U11C C12U C13U — lower, 1.23
- U7A U8G G9C U10A U11C C12U C13A — lower, 1.26
- U7A U8G G9C U10A U11C C12U C13G — higher, 1.59
- U7A U8G G9C C12U C13G — lower, 1.22
- U7A U8G G9C C12U C13A — higher, 1.4
- U7A U8G G9C C12U C13U — lower, 1.21
- U7A U8G G9C C12A C13A — higher, 1.46
- U7A U8G G9C C12A C13U — lower, 1.29
- U7A U8G G9C C12A C13G — lower, 1.16
- U7A U8G G9A U10G U11A C12A C13U — lower, 1.11
- U7A U8G G9A U10G U11A C12A C13G — higher, 1.41
- U7A U8G G9A U10G U11A C12A C13A — lower, 1.19
- U7A U8G G9C U10A U11A C12U C13G — lower, 1.34
- U7A U8G G9C U10A U11A C12U C13A — higher, 1.42
- U7A U8G G9C U10A U11A C12U C13U — higher, 1.57
- U7A U8G G9A U10G U11A C12G C13G — lower, 1.11
- U7A U8G G9A U10G U11A C12G C13A — lower, 1.15
- U7A U8G G9A U10G U11A C12G C13U — lower, 1.22
- U7A U8G G9A U10C U11A C12A C13A — lower, 1.12
- U7A U8G G9A U10C U11A C12A C13G — lower, 1.11
- U7A U8G G9A U10C U11A C12A C13U — lower, 1.19
- U7A U8G G9A U10C C13A — lower, 1.03
- U7A U8G G9A U10C C13G — lower, 1.1
- U7A U8G G9A U10C C13U — lower, 1.25
- U7A U8G G9C U10A U11C C13A — lower, 1.04
- U7A U8G G9C U10A U11C C13U — lower, 1.04
- U7A U8G G9C U10A U11C C13G — lower, 1.04
- U7A U8G G9A U10A C12U C13G — lower, 1.13
- U7A U8G G9A U10A C12U C13U — lower, 1.04
- U7A U8G G9A U10A C12U C13A — lower, 1.38
- U7A U8G G9C U10A — lower, 1.24
- U7A U8G G9A U10A U11A C13A — lower, 1.19
- U7A U8G G9A U10A U11A C13G — lower, 1.17
- U7A U8G G9A U10A U11A C13U — lower, 1.17
- U7A U8G G9C U10A C13A — lower, 1.19
- U7A U8G G9C U10A C13U — lower, 1.3
- U7A U8G G9C U10A C13G — lower, 1.15
- U7A U8G G9A U11C C12A — higher, 1.46
- U7A U8G G9A U11C C12G — higher, 1.56
- U7A U8G G9A U11C C12U — the same, 1.39
- U7A U8G G9A U10A U11A C12U C13U — lower, 1.07
- U7A U8G G9A U10A U11A C12U C13A — lower, 1.2
- U7A U8G G9A U10A U11A C12U C13G — lower, 1.29
- U7A U8G G9A U11A C13U — higher, 1.55
- U7A U8G G9A U11A C13A — lower, 1.24
- U7A U8G G9A U11A C13G — lower, 1.21
- U7A U8G G9C U10A U11G C12G — lower, 1.35
- U7A U8G G9C U10A U11G C12U — lower, 1.08
- U7A U8G G9C U10A U11G C12A — lower, 1.07
- U7A U8G G9A U11G C12G C13G — lower, 1.08
- U7A U8G G9A U11G C12G C13A — lower, 1.1
- U7A U8G G9A U11G C12G C13U — higher, 1.52
- U7A U8G G9A U10C C12G C13G — lower, 1.38
- U7A U8G G9A U10C C12G C13U — lower, 1.17
- U7A U8G G9A U10C C12G C13A — lower, 1.19
- U7A U8G G9A U10A U11C C12U C13G — lower, 1.17
- U7A U8G G9A U10A U11C C12U C13U — lower, 1.26
- U7A U8G G9A U10A U11C C12U C13A — lower, 1.15
- U7A U8G G9A U10G U11C C12U C13U — lower, 1.14
- U7A U8G G9A U10G U11C C12U C13G — lower, 1.09
- U7A U8G G9A U10G U11C C12U C13A — lower, 1.32
- U7A U8G G9C C13U — higher, 1.42
- U7A U8G G9C C13G — lower, 1.11
- U7A U8G G9C C13A — higher, 1.47
- U7A U8G G9A U10G U11A — lower, 1.06
- U7A U8G G9A U10G U11C — lower, 1.01
- U7A U8G G9C U10A U11C C12A — lower, 1.29
- U7A U8G G9C U10A U11C C12G — lower, 1.22
- U7A U8G G9C U10A U11C C12U — lower, 1.04
- U7A U8G G9A U11A C12U C13U — lower, 1.32
- U7A U8G G9A U11A C12U C13G — lower, 1.28
- U7A U8G G9A U11A C12U C13A — lower, 1.37
- U7A U8G G9A U11C C13G — lower, 1.09
- U7A U8G G9A U11C C13A — lower, 1.12
- U7A U8G G9A U11C C13U — lower, 1.2
